Results reported in patent US9120865B2, “T cell epitopes of the Cyn d 1 allergen from bermuda grass pollen” (Circassia Limited, priority 2001, dated 2015).

Legend:
[1] = system: oligoclonal T cell blasts from Bermuda grass pollen-specific T cell lines; assay: Oligoclonal T cell proliferation assay (3HTdR incorporation); assay type: cell-based, human; conditions: for number of patients in whom the peptide elicited proliferation: 13 Cyn d 1-reactive patients, SI≧2.5 considered significant
Text: Bermuda grass pollen-specific T cell lines were isolated with the use of our well-established methods for thegeneration of allergen-specific T cell populations (O'Hehir, R. E., Young, D. B., Kay, A. B., Lamb, J. R., Immunology, 62:635-640, 1987; O'Hehir, R. E., Askonas, B. A., Lamb, J. R., Vol 3, Heidelberg:Springer-Verlag, p 120-138, 1993). Briefly, PBMC were separated from heparinized venous blood by density gradient centrifugation over Ficoll Paque (Pharmacia, Sweden). PBMC were initially stimulated for 1 week in 24-well plates (Costar, USA; 2.5×10^6 PBMC/well) with a previously determined optimal concentration of Bermuda grass pollen extract (50 μg/ml) for 7 days in complete medium (RPMI-1640 medium, Gibco Life Technologies, supplemented with 2 mmol/L L-glutamine, 100 IU/ml penicillin/streptomycin, and 5% screened, heat inactivated human AB^+ serum, Sigma Chemical Company, USA) at 37° C., 5% CO2. A two week line was established by restimulating the T cell blasts with Bermuda grass pollen extract in the presence of irradiated (3000 rads) autologous PBMC every 7 days, with the addition of interleukin-2 (5% vol/vol; Lymphocult-TLF, Biotest Folex, Frankfurt, Germany) every 3-4 days. In all experiments, T cells were rested for 7 days after the last addition of antigen and antigen presenting cells (APC) before use in proliferation assays. We have previously shown that CD4+ T cells are preferentially expanded in these cultures.
Oligoclonal T cell blasts (5×10^4/well) from the Bermuda grass pollen-specific T cell lines were stimulated in triplicate with Bermuda grass pollen extract (25, 50, 100 μg/ml), purified Cyn d 1 (2.5, 5, 10 μg/ml) and the Cyn d 1 peptides (1, 10 μg/ml) in the presence of an equal number of irradiated autologous PBMC as APC for 72 hours in 96-well round bottom plates (ICN Biomedicals, USA). Cultures of T cells and APC in the absence of antigen or with added IL-2 were included as negative and positive controls respectively. After 72 hours, cultures were pulsed with 1 μCi/well of tritiated methyl thymidine (^3HTdR; Amersham, USA) and harvested 16 hours later onto glass fibre filters. Proliferation as correlated with ^3HTdR incorporation was measured by liquid scintillation spectroscopy. Results are expressed as change in mean counters per minute above background (Acpm) or as a stimulation index (SI, cpm of antigen stimulated T cells divided by cpm of unstimulated T cells) to allow easier comparison between subjects with different background incorporation. Stimulation index values ≧2.5 are considered significant. Production of IL-5 and IFN-γ by Bermuda grass pollen-specific oligoclonal T cells

IL-5 = assay: Production of IL-5 by Bermuda grass pollen-specific oligoclonal T cells (sandwich ELISA of culture supernatants); assay type: cell-based, human; conditions: pre-SIT; supernatants at 48 hours
Description: (§1) Production of IL-5 and IFN-γ by cultured oligoclonal T cells was assessed by harvesting supernatants from proliferation assays at 48 hours after stimulation, with replacement by an equal volume of complete medium, and measurement of cytokine levels by sandwich ELISA. White 96-well maxisorp ELISA plates (Nalgene NUNC, Denmark) were coated with rat anti-mouse/human IL-5 (PharMingen, USA) or mouse anti-human IFN-γ (endogen, USA) at 2 μg/ml and incubated overnight at 4° C. The plates were washed with 0.5% Tween 20/PBS and blocked with 1% BSA/PBS for 1 hour at room temperature. The plates were washed again and the culture supernatants from pooled triplicate assays added in duplicate to the wells. A standard curve was established using known concentrations of human recombinant IL-5 (PharMingen, USA) and IFN-γ (Endogen, USA). The plates were incubated with either 1 μg/ml biotinylated rat anti-human IL-5 (PharMingen, USA) or 0.5 μg/ml biotinylated mouse anti-human IFN-γ (Endogen, USA) for 1 hour at room temperature. After washing the plates, streptavidin-biotinylated horseradish peroxidase (Amersham, USA), at a dilution of 1:2000, was added to each well and incubated for 45 minutes at room temperature. […] The plates were read on a LumiCount microplate glow luminometer (Packard Instrument Company, USA). […]

IFN-γ = assay: Production of IFN-γ by Bermuda grass pollen-specific oligoclonal T cells (sandwich ELISA of culture supernatants); assay type: cell-based, human; conditions: pre-SIT; supernatants at 48 hours
Description: as §1

[2] = system: oligoclonal house dust mite-reactive CD4+ T cells; assay: Mitogenicity check with irradiated PBMC; assay type: cell-based, human; conditions: data not shown
Description: (§2) Antigens • (i) Bermuda grass pollen. • Bermuda grass pollen was purchased from Greer Laboratories Inc. (Lenoir, N.C., USA) as dry, non-defatted pollen. One gram of pollen was extracted in 5 ml of 1 mM NH4HCO3 overnight at 4° C. on a rotating wheel. After centrifugation, the supernatant was dialyzed against PBS overnight. The extract was filtered through a 0.2 μm filter. The protein content of the extract was determined using the Bio-Rad Microassay (Bio-Rad, USA). • (ii) Cyn d 1. • Cyn d 1 was generated by the Bermuda grass pollen extract first undergoing an 80% ammonium sulphate precipitation. […] The protein content was determined using the Bio-Rad Microas say. • (iii) Peptides. • Synthetic peptides (20-mers overlapping by 11 or, for the two N-terminal peptides, 15 residues) spanning the entire length of the Cyn d 1 molecule were purchased from Mimotopes (Clayton, Australia; FIG. 2) (CD1 isoform, Smith et al., 1996, supra). • (iv) Mitogenicity and Toxicity. • Mitogenicity of Bermuda grass pollen, Cyn d 1 and Cyn d 1 peptides was excluded by culturing with oligoclonal house dust mite-reactive CD4^+ T cells in the presence of irradiated peripheral blood mononuclear cells (PBMC), and toxicity was excluded by co-culture of antigens with the HDM-reactive T cells in the presence of IL-2 (data not shown).

HDM-reactive T cells = assay: Toxicity check by co-culture of antigens in the presence of IL-2; assay type: cell-based, human; conditions: data not shown
Description: as §2

IgE = conditions: sera from Bermuda grass pollen-allergic patients; cited from earlier work

With “EGGAHLVQDDVIPANWKPDT (human) [Cyn d 1(217-236), synthetic 20-mer peptide of Cyn d 1, residues 217-236]” the “number of patients in whom the peptide elicited proliferation” value (“number of patients” for short) ([1]; pre-immunotherapy) was 8 patients.

With “SGKAFGAMAKKGQEDKLRKA (human) [Cyn d 1(109-128), synthetic 20-mer peptide of Cyn d 1, residues 109-128]” the “number of patients” value ([1]; pre-immunotherapy) was 8 patients.

In the case of “PKDSDEFIPMKSSWGAIWRI (human) [Cyn d 1(181-200), synthetic 20-mer peptide of Cyn d 1, residues 181-200]”, the “number of patients” value ([1]; pre-immunotherapy) is reported as 6 patients.

For “LVQDDVIPANWKPDTVYTSK (human) [Cyn d 1(222-241), synthetic 20-mer peptide of Cyn d 1, residues 222-241]”, the “number of patients” value ([1]; pre-immunotherapy) was 6 patients.

In the case of “MKSSWGAIWRIDPKKPLKGP (human) [Cyn d 1(190-209), synthetic 20-mer peptide of Cyn d 1, residues 190-209]”, the “number of patients” value ([1]; pre-immunotherapy) is reported as 6 patients.

B1: Cyn d 1: major allergen protein of Bermuda grass pollen, purified from the pollen extract by ammonium sulphate precipitation and G-75 Sephadex (protein)
chain: AIGDKPGPNITATYGNKWLEAKATFYGSNPRGAAPDDHGGACGYKDVDKPPFDGMTACGNEPIFKDGLGCGACYEIKCKEPVECSGEPVLVKITDKNYEHIAAYHFDLSGKAFGAMAKKGQEDKLRKAGELTLQFRRVKCKYPSGTKITFHIEKGSNDHYLALLVKYAAGDGNIVAVDIKPKDSDEFIPMKSSWGAIWRIDPKKPLKGPFSIRLTSEGGAHLVQDDVIPANWKPDTVYTSKLQFGA
modifications: human
notes: major allergen protein of Bermuda grass pollen, purified from the pollen extract by ammonium sulphate precipitation and G-75 Sephadex
In the case of B1, the “change in proliferative responses / recognition” value ([1]; following SIT) is reported as “marked decrease”, the “patients with decreased proliferation” value ([1]; following one year of SIT) is reported as 11/13 and the “patients whose Bermuda grass pollen-specific T cell lines showed proliferative T cell responses” value ([1]; pre-immunotherapy, 2-week T cell lines from 14 patients) is reported as 13/14. For the same molecule, the “IL-5 secreted in response to stimulation” value (IL-5) was “High levels”, the “IFN-γ secreted in response to stimulation” value (IFN-γ) was “High levels” and the Mitogenicity [2] was “excluded”. The toxicity (HDM-reactive T cells) was “excluded” and the predominant humoral recognition (IgE) was greater than 76%.
